Reference: FireProtDB (doi:10.1021/bi982427c)

B1: Acyl-CoA-binding protein, P07107 (parent)
chain: MSQAEFDKAAEEVKHLKTKPADEEMLFIYSHYKQATVGDINTERPGMLDFKGKAKWDAWNELKGTSKEDAMKAYIDKVEELKKKYGI

Variants of: B1
Conditions: Bos taurus; pH 5.3; 5 °C; GdnHCl; Fluorescence; Sodium acetate 0.02 M; reversible: yes; structure 2ABD; whole UniProt chain shown

Variant	ddG of mutation (higher = less stable) [kcal/mol]	unfolding free energy [kcal/mol]
V78A	1.14	6.75
A35G	1.57	6.32
Y29F	1.06	6.83
Y29A	2.47	5.42
K53M K55M	-1.01	8.9
L26A	1.02	6.87
D22H	0.56	7.33
D22A	-0.42	8.31
Q34A	3.66	4.23
K33E	1.68	6.21
K33A	1.02	6.87
K33R	1.83	6.06
L16A	3.1	4.79
K55A	0.86	7.03
V13A	1.69	6.2
K53M	-0.18	8.07
L81A	3.7	4.19
P45A	1.4	6.49
T36A	1.09	6.8
Y74F	-0.27	8.16
Y74A	4.83	3.06
E68A	0.36	7.53
P20A	1.07	6.82
F6A	2.52	5.37
Y32N	1.52	6.37
